The Immune Epitope Database (IEDB)

Columns and labels:
HLA-B*08:01 = assay: IEDB peptide-MHC binding, purified MHC/competitive/radioactivity; filed as Kd, often an IC50 or EC50 that approximates it; ≥ and ≤ were set here for values at or beyond the usual limits of such assays
HLA-A*26:01 = assay: as above
HLA-A*29:02 = assay: as above
HLA-A*24:02 = assay: as above
HLA-A*23:01 = assay: as above
HLA-A*30:02 = assay: as above
HLA-A*01:01 [1] = assay: as above
HLA-A*69:01 = assay: IEDB peptide-MHC binding, purified MHC/direct/fluorescence; filed as Kd, often an IC50 or EC50 that approximates it; ≥ and ≤ were set here for values at or beyond the usual limits of such assays; conditions: source organism: Homo sapiens
HLA-B*07:02 = assay: as above; conditions: source organism: Homo sapiens
HLA-B*53:01 = assay: IEDB peptide-MHC binding, purified MHC/competitive/radioactivity; filed as Kd, often an IC50 or EC50 that approximates it; ≥ and ≤ were set here for values at or beyond the usual limits of such assays
HLA-B*58:01 = assay: IEDB peptide-MHC binding, purified MHC/direct/fluorescence; filed as Kd, often an IC50 or EC50 that approximates it; ≥ and ≤ were set here for values at or beyond the usual limits of such assays
HLA-A*03:01 [2] = assay: as above
HLA-A*11:01 [3] = assay: as above
HLA-A*01:01 [4] = assay: as above
HLA-A*03:01 [5] = assay: IEDB peptide-MHC binding, purified MHC/competitive/radioactivity; filed as Kd, often an IC50 or EC50 that approximates it; ≥ and ≤ were set here for values at or beyond the usual limits of such assays; conditions: source organism: SARS coronavirus Tor2
HLA-A*31:01 = assay: as above; conditions: source organism: SARS coronavirus Tor2
HLA-A*68:01 = assay: as above; conditions: source organism: SARS coronavirus Tor2
HLA-A*11:01 [6] = assay: as above; conditions: source organism: SARS coronavirus Tor2
HLA-A*33:01 = assay: as above; conditions: source organism: SARS coronavirus Tor2
HLA-B*15:01 = assay: IEDB peptide-MHC binding, purified MHC/direct/fluorescence; filed as Kd, often an IC50 or EC50 that approximates it; ≥ and ≤ were set here for values at or beyond the usual limits of such assays; conditions: source organism: SARS-CoV1
[7] = source organism: Vaccinia virus WR
[8] = source organism: Mammarenavirus lassaense
[9] = source organism: Mammarenavirus whitewaterense
[10] = source organism: SARS coronavirus Tor2
[11] = source organism: Dengue virus 1 Brazil/97-11/1997
[12] = source organism: Mammarenavirus guanaritoense

Sequence | Kd (HLA-A*26:01; [10]) | Kd (HLA-A*29:02; [10]) | Kd (HLA-A*24:02; [10]) | Kd (HLA-A*23:01; [10]) | Kd (HLA-A*30:02; [10]) | Kd (HLA-A*01:01 [1]; [10]) | also measured
AFKNKRLVF |  |  |  |  |  |  | Kd (HLA-B*08:01; [7]): 1.56 µM
AGFPAGLTY |  |  |  |  |  |  | Kd (HLA-A*26:01; [8]): ≥ 77.9 µM; Kd (HLA-A*29:02; [8]): 0.0689 µM; Kd (HLA-A*24:02; [8]): ≥ 77.5 µM; Kd (HLA-A*23:01; [8]): ≥ 77.7 µM; Kd (HLA-A*30:02; [8]): 0.287 µM; Kd (HLA-A*01:01 [1]; [8]): ≥ 78.1 µM
ALLSRFFNM |  |  |  |  |  |  | Kd (HLA-B*08:01; [7]): 0.00296 µM
AYTSSDDEI |  |  |  |  |  |  | Kd (HLA-A*29:02; [9]): 1.59 µM; Kd (HLA-A*24:02; [9]): 4.87 µM; Kd (HLA-A*23:01; [9]): 1.58 µM
CKDGHVETFY | 3.87 µM | 0.171 µM | ≥ 70.3 µM | ≥ 70 µM | 0.506 µM | 8.08 µM | 
DNAFNCTFEY | 0.132 µM | 0.0144 µM | ≥ 70.3 µM | ≥ 70 µM | 0.382 µM | 4.25 µM | 
EPEPHILLF |  |  |  |  |  |  | Kd (HLA-A*69:01): 7.05 µM; Kd (HLA-B*07:02): 5.47 µM
FCSHHFHQL |  |  |  |  |  |  | Kd (HLA-B*08:01; [11]): 0.178 µM
FDEISMATNY | 0.699 µM | 0.0184 µM | ≥ 70.3 µM | ≥ 70 µM | 4.1 µM | 13 µM | 
FPQSNAVIQ |  |  |  |  |  |  | Kd (HLA-B*53:01; [11]): 0.527 µM
FPRSMLSIF |  |  |  |  |  |  | Kd (HLA-B*08:01; [7]): 0.00988 µM
FRYVFFEII |  |  |  |  |  |  | Kd (HLA-B*08:01; source organism: Vaccinia virus Copenhagen): 0.208 µM
FSGALDTTSY | 9.15 µM | 0.678 µM | ≥ 70.3 µM | ≥ 70 µM | 0.451 µM | 1.31 µM | 
FYFTNDVSFL | 9.34 µM | 0.384 µM | 0.0475 µM | 0.0592 µM | ≥ 34.2 µM | 2 µM | 
HFAIGLALYY | 0.00653 µM | 0.000233 µM | ≥ 70.3 µM | ≥ 60.9 µM | 0.236 µM | 2.32 µM | 
HLRVLFSIF |  |  |  |  |  |  | Kd (HLA-B*08:01; [7]): 0.00466 µM
ILGPPGSVY |  |  |  |  |  |  | Kd (HLA-B*58:01; source organism: Homo sapiens): 0.326 µM; Kd (HLA-A*03:01 [2]; source organism: Homo sapiens): 0.852 µM; Kd (HLA-B*07:02): ≥ 33.1 µM; Kd (HLA-A*11:01 [3]; source organism: Homo sapiens): 1.66 µM; Kd (HLA-A*01:01 [4]; source organism: Homo sapiens): 6.42 µM
KPAVRFAIL |  |  |  |  |  |  | Kd (HLA-B*08:01; [7]): 1.43 µM
KSAQCFKMFY | ≥ 86.9 µM | 0.0753 µM | 4.7 µM | 5.09 µM | ≥ 21.2 µM | ≥ 89.3 µM | Kd (HLA-A*03:01 [5]): 5.06 µM; Kd (HLA-A*31:01): 0.629 µM; Kd (HLA-A*68:01): 1.45 µM; Kd (HLA-A*11:01 [6]): 2.25 µM; Kd (HLA-A*33:01): 0.753 µM
KSFEIDKGIY | 5.51 µM | 0.984 µM | ≥ 70.3 µM | ≥ 70 µM | 0.00475 µM | 0.78 µM | 
KYILIQAGF |  |  |  |  |  |  | Kd (HLA-A*29:02; [12]): 3.74 µM; Kd (HLA-A*24:02; [12]): 0.0119 µM; Kd (HLA-A*23:01; [12]): 0.00177 µM
LATGPITTLW |  |  |  |  |  |  | Kd (HLA-B*53:01; source organism: Dengue virus 3 Martinique/1243/1999): 0.0786 µM
LATGPLTTLW |  |  |  |  |  |  | Kd (HLA-B*53:01; [11]): 0.0984 µM
LKGMSYAMCL |  |  |  |  |  |  | Kd (HLA-B*08:01; source organism: Dengue virus 3 Singapore/8120/1995): 0.438 µM
LLEKCDLQNY | ≥ 82.8 µM | 3.26 µM | ≥ 70.3 µM | ≥ 70 µM | 7.03 µM | 0.0707 µM | 
LLKLGFEEI |  |  |  |  |  |  | Kd (HLA-B*08:01; [7]): 0.51 µM
LLQMENKAWL |  |  |  |  |  |  | Kd (HLA-B*08:01; source organism: Dengue virus 2 16681-PDK53): 0.28 µM
LMLVALLGAM |  |  |  |  |  |  | Kd (HLA-B*08:01; source organism: Dengue virus 4 Philippines/H241/1956): 7.19 µM
LTDDMIAAY | 1.8 µM | 0.529 µM | ≥ 77.6 µM | ≥ 77.8 µM | 0.326 µM |  | Kd (HLA-B*58:01; source organism: SARS-CoV1): 6.94 µM; Kd (HLA-A*03:01 [2]; source organism: SARS-CoV1): 19.3 µM; Kd (HLA-A*11:01 [3]; source organism: SARS-CoV1): 4.05 µM; Kd (HLA-B*15:01): 0.636 µM; Kd (HLA-A*01:01 [4]; source organism: SARS-CoV1): 0.007 µM
